We go through 38 molecules from US20240327535A1 (EISAI R AND D MANAGEMENT, published 2024).

In general, Kd refers to the equilibrium constant for the complex coming apart.

Numbering of substitutions follows the chain as printed.

First the molecules themselves.
B1: AB200-R1H26-R2Vk16 (Fab, V domains shown)
VH: QVQLVQSGAEVKKPGSSVKVSCKASGGSFSNYWMHWVRQAPGQGLEWMGATYRIHSDTFYNQKFKGRVTITADKSTSTAYMELSSLRSEDTAVYYCARGAIYHGYDVLDNWGQGTLVTVSS
VL: DIQMTQSPSSLSASVGDRVTITCRASQSISSYINWYQQKPGKAPKLLIYAASSLQSGVPSRFSGSGSGTDFTLTISSLQPEDFATYYCQQFRRLPWTFGQGTKLEIKR
B2: AB200-R1H26-R2Vk17 (Fab, V domains shown)
VH: B1 VH
VL: B1 VL with F91Y, R93K, L94I, T97S
B3: AB200-R1H26-R2Vk18 (Fab, V domains shown)
VH: B1 VH
VL: B1 VL with R93K, L94I
B4: AB200-R1H32-R2Vk1 (Fab, V domains shown)
VH: B1 VH with S28T, I54S, F59Y, G66S, L108I
VL: B1 VL with I33L, R93K, T97S
B5: AB200-R1H32-R2Vk20 (Fab, V domains shown)
VH: B1 VH with S28T, I54S, F59Y, G66S, L108I
VL: B1 VL with I33L, A51T, S53N, F91Y, L94I
B6: AB200-R1H32-R2Vk21 (Fab, V domains shown)
VH: B1 VH with S28T, I54S, F59Y, G66S, L108I
VL: B1 VL with I33L, A51T, S53N
B7: AB200-R1H32-R2Vk16 (Fab, V domains shown)
VH: B1 VH with S28T, I54S, F59Y, G66S, L108I
VL: B1 VL
B8: AB200-R1H32-R2Vk42 (Fab, V domains shown)
VH: B1 VH with S28T, I54S, F59Y, G66S, L108I
VL: B1 VL with A51T, S53N, L54I, F91Y, R93K, L94I, T97S
B9: AB200-R1H32-R2Vk8 (Fab, V domains shown)
VH: B1 VH with S28T, I54S, F59Y, G66S, L108I
VL: B1 VL with A51T, S53N, S56I, R93K, T97S
B10: AB200-R1H32-R2Vk47 (Fab, V domains shown)
VH: B1 VH with S28T, I54S, F59Y, G66S, L108I
VL: B1 VL with A51T, S53N, S56I, F91Y, R93K, L94I, T97S
B11: AB200-R1H32-R2Vk15 (Fab, V domains shown)
VH: B1 VH with S28T, I54S, F59Y, G66S, L108I
VL: B1 VL with F91Y, L94I
B12: AB200-R1H32-R2Vk6 (Fab, V domains shown)
VH: B1 VH with S28T, I54S, F59Y, G66S, L108I
VL: B1 VL with A51T, S53N, R93K, T97S
B13: AB200-R1H32-R2Vk24 (Fab, V domains shown)
VH: B1 VH with S28T, I54S, F59Y, G66S, L108I
VL: B1 VL with I33L, A51T, S53N, L54I, F91Y, T97S
B14: AB200-R1H32-R2Vk18 (Fab, V domains shown)
VH: B1 VH with S28T, I54S, F59Y, G66S, L108I
VL: B1 VL with R93K, L94I
B15: AB200-R1H32-R2Vk7 (Fab, V domains shown)
VH: B1 VH with S28T, I54S, F59Y, G66S, L108I
VL: B1 VL with A51T, S53N, L54I, R93K, T97S
B16: AB200-R1H32-R2Vk22 (Fab, V domains shown)
VH: B1 VH with S28T, I54S, F59Y, G66S, L108I
VL: B1 VL with I33L, A51T, S53N, F91Y, R93K, L94I, T97S
B17: AB200-R1H32-R2Vk27 (Fab, V domains shown)
VH: B1 VH with S28T, I54S, F59Y, G66S, L108I
VL: B1 VL with I33L, A51T, S53N, L54I, F91Y, R93K, L94I, T97S
B18: AB200-R1H32-R2Vk11 (Fab, V domains shown)
VH: B1 VH with S28T, I54S, F59Y, G66S, L108I
VL: B1 VL with I33L
B19: AB200-R1H32-R2Vk45 (Fab, V domains shown)
VH: B1 VH with S28T, I54S, F59Y, G66S, L108I
VL: B1 VL with A51T, S53N, S56I, F91Y, L94I
B20: AB200-R1H32-R2Vk39 (Fab, V domains shown)
VH: B1 VH with S28T, I54S, F59Y, G66S, L108I
VL: B1 VL with A51T, S53N, L54I, F91Y, T97S
B21: AB200-R1H32-R2Vk4 (Fab, V domains shown)
VH: B1 VH with S28T, I54S, F59Y, G66S, L108I
VL: B1 VL with I33L, A51T, S53N, L54I, R93K, T97S
B22: AB200-R1H32-R2Vk31 (Fab, V domains shown)
VH: B1 VH with S28T, I54S, F59Y, G66S, L108I
VL: B1 VL with I33L, A51T, S53N, S56I
B23: AB200-R1H32-R2Vk2 (Fab, V domains shown)
VH: B1 VH with S28T, I54S, F59Y, G66S, L108I
VL: B1 VL with R93K, T97S
B24: AB200-R1H32-R2Vk3 (Fab, V domains shown)
VH: B1 VH with S28T, I54S, F59Y, G66S, L108I
VL: B1 VL with I33L, A51T, S53N, R93K, T97S
B25: AB200-R1H32-R2Vk19 (Fab, V domains shown)
VH: B1 VH with S28T, I54S, F59Y, G66S, L108I
VL: B1 VL with I33L, A51T, S53N, F91Y, T97S
B26: AB200-R1H32-R2Vk9 (Fab, V domains shown)
VH: B1 VH with S28T, I54S, F59Y, G66S, L108I
VL: B1 VL with I33L, F91Y, T97S
B27: AB200-R1H32-R2Vk36 (Fab, V domains shown)
VH: B1 VH with S28T, I54S, F59Y, G66S, L108I
VL: B1 VL with A51T, S53N
B28: AB200-R1H32-R2Vk28 (Fab, V domains shown)
VH: B1 VH with S28T, I54S, F59Y, G66S, L108I
VL: B1 VL with I33L, A51T, S53N, L54I, R93K, L94I
B29: AB200-R1H32-R2Vk12 (Fab, V domains shown)
VH: B1 VH with S28T, I54S, F59Y, G66S, L108I
VL: B1 VL with I33L, F91Y, R93K, L94I, T97S
B30: AB200-R1H32-R2Vk46 (Fab, V domains shown)
VH: B1 VH with S28T, I54S, F59Y, G66S, L108I
VL: B1 VL with A51T, S53N, S56I
B31: AB200-R1H32-R2Vk23 (Fab, V domains shown)
VH: B1 VH with S28T, I54S, F59Y, G66S, L108I
VL: B1 VL with I33L, A51T, S53N, R93K, L94I
B32: AB200-R1H32-R2Vk41 (Fab, V domains shown)
VH: B1 VH with S28T, I54S, F59Y, G66S, L108I
VL: B1 VL with A51T, S53N, L54I
B33: AB200-R1H32-R2Vk35 (Fab, V domains shown)
VH: B1 VH with S28T, I54S, F59Y, G66S, L108I
VL: B1 VL with A51T, S53N, F91Y, L94I
B34: AB200-R1H32-R2Vk5 (Fab, V domains shown)
VH: B1 VH with S28T, I54S, F59Y, G66S, L108I
VL: B1 VL with I33L, A51T, S53N, S56I, R93K, T97S
B35: AB200-R1H32-R2Vk10 (Fab, V domains shown)
VH: B1 VH with S28T, I54S, F59Y, G66S, L108I
VL: B1 VL with I33L, F91Y, L94I
B36: AB200-R1H32-R2Vk17 (Fab, V domains shown)
VH: B1 VH with S28T, I54S, F59Y, G66S, L108I
VL: B1 VL with F91Y, R93K, L94I, T97S
B37: AB200-R1H32-R2Vk13 (Fab, V domains shown)
VH: B1 VH with S28T, I54S, F59Y, G66S, L108I
VL: B1 VL with I33L, R93K, L94I
B38: AB200-R1H32-R2Vk14 (Fab, V domains shown)
VH: B1 VH with S28T, I54S, F59Y, G66S, L108I
VL: B1 VL with F91Y, T97S

T2 sequence (F7FFA0 entry or part of it): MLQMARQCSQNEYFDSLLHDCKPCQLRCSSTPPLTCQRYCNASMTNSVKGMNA

The target in one assay is T1, extracellular domain of human BCMA (human, UniProt Q02223 1-54).
T1 construct: amine-linked to Octet AR2G tips; also called hsBCMA; BCMA (human)
T1 sequence: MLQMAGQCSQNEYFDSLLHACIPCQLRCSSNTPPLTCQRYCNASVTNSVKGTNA
Put plainly: Octet BLI; Fab 200 nM. On the technique in general: In BLI a coated tip is dipped into the sample, and binding shifts an interference pattern.
For the molecule B1, the affinity, expressed as Kd, was 2.09 nM.

For B2, the Kd is 3.59 nM.

B3 registered a dissociation constant Kd of 3.44 nM.

The next assay addresses T1, extracellular domain of human BCMA. Briefly: Octet BLI; Fab 200 nM. The source holds these as a separate data set.
In turn, B4 displayed a Kd of 1.27 nM.

For the molecule B5, binding was put at a Kd of 0.867 nM.

The molecule B6 registered a Kd of 0.8 nM.

As for B7, the Kd came to 1.17 nM.

Take B8: the Kd was 1.04 nM.

Turning to B9, the Kd stood at 0.92 nM.

In turn, B10 showed a Kd of 0.766 nM.

For the molecule B11, binding was characterised by a dissociation constant (Kd) of 1.29 nM.

In turn, B12 returned a dissociation constant (Kd) of 1.23 nM.

Regarding B13, the Kd is 1.05 nM.

On to B14, for which the Kd came out at 1.52 nM.

In turn, B15 gave a Kd of 1.27 nM.

Molecule B16 had a Kd of 1.06 nM.

In turn, B17 gave a Kd of 1.21 nM.

The molecule B18 showed a Kd of 0.936 nM.

For B19, the Kd was determined as 0.714 nM.

For B20, the equilibrium dissociation constant (Kd) turned out to be 1.06 nM.

In turn, B21 displayed a Kd of 1.14 nM.

Take B22: the Kd was found to be 0.665 nM.

Take B23: the Kd stood at 1.48 nM.

For the molecule B24, the Kd was 1.01 nM.

B25 returned a Kd of 0.946 nM.

For B26, the Kd was found to be 1.43 nM.

As for B27, the Kd was determined as 0.83 nM.

B28 yielded a Kd of 1.19 nM.

In the case of B29, the Kd worked out at 1.53 nM.

Consider B30, for which binding was put at a Kd of 0.778 nM.

As to B31, the Kd was determined as 1.13 nM.

Consider B32, for which the Kd worked out at 1.19 nM.

In turn, B33 displayed a Kd of 0.843 nM.

Molecule B34 gave a Kd of 0.882 nM.

B35 showed a dissociation constant (Kd) of 2.1 nM.

Take B36: the Kd amounted to 1.43 nM.

In the case of B37, the Kd amounted to 2.2 nM.

The molecule B38 yielded a Kd of 1.32 nM.

A further assay has as its target T2, extracellular domain of rhesus monkey BCMA (rhesus monkey, UniProt F7FFA0 1-53).
T2 construct: extracellular domain; also called RhBCMA
Put plainly: Octet BLI; Fab 200 nM.
B4 returned a Kd of 5.42 nM.

B5 gave a Kd of 4.82 nM.

Take B6: the dissociation constant (Kd) was found to be 3.31 nM.

Molecule B7 gave a dissociation constant Kd of 4.54 nM.

Turning to B8, the Kd came to 5.93 nM.

The molecule B9 came in with a Kd of 3.59 nM.

In turn, B10 came in with a Kd of 3.91 nM.

On to B11, for which the Kd is 6.41 nM.

Molecule B12 yielded a dissociation constant (Kd) of 4.63 nM.

The molecule B13 gave a Kd of 4.89 nM.

B14 displayed a dissociation constant Kd of 6.3 nM.

As for B15, the Kd stood at 5 nM.

Consider B16, for which the Kd stood at 5.64 nM.

Consider B17, for which binding was characterised by a dissociation constant (Kd) of 6.9 nM.

In turn, B18 returned a dissociation constant (Kd) of 4.1 nM.

Consider B19, for which binding was put at a Kd of 3.33 nM.

For B20, the affinity, expressed as Kd, was 4.76 nM.

As to B21, the dissociation constant (Kd) worked out at 5.6 nM.

With B22, the Kd amounted to 2.82 nM.

On to B23, for which binding was characterised by a dissociation constant (Kd) of 5.5 nM.

B24 returned a Kd of 4.38 nM.

On to B25, for which the dissociation constant (Kd) was found to be 4.57 nM.

Molecule B26 registered a Kd of 7.38 nM.

The molecule B27 returned a Kd of 3.45 nM.

For the molecule B28, binding was put at a Kd of 5.99 nM.

In turn, B29 came in with an equilibrium dissociation constant (Kd) of 9.12 nM.

B30 had a Kd of 2.98 nM.

Molecule B31 showed a Kd of 5.08 nM.

B32 displayed a Kd of 4.26 nM.

In turn, B33 displayed a Kd of 4.13 nM.

As to B34, binding was characterised by a dissociation constant (Kd) of 5.66 nM.

In turn, B35 came in with a Kd of 7.86 nM.

B36: binding was put at a Kd of 7.49 nM.

The molecule B37 yielded a dissociation constant (Kd) of 6.59 nM.

In the case of B38, the Kd is 6.05 nM.
